One molecule from publication doi:10.1101/340778 (bioRxiv, 2018) can be followed below.

The target of this assay is J-base Binding Protein 1 (JBP1) (Leishmania tarentolae (assumed; species …, UniProt Q9U6M1). Description: SPR. Background: Surface plasmon resonance follows binding to a sensor surface in real time, without labels.
Sequence of J-base Binding Protein 1 (JBP1) (Leishmania tarentolae (Q9U6M1 whole entry): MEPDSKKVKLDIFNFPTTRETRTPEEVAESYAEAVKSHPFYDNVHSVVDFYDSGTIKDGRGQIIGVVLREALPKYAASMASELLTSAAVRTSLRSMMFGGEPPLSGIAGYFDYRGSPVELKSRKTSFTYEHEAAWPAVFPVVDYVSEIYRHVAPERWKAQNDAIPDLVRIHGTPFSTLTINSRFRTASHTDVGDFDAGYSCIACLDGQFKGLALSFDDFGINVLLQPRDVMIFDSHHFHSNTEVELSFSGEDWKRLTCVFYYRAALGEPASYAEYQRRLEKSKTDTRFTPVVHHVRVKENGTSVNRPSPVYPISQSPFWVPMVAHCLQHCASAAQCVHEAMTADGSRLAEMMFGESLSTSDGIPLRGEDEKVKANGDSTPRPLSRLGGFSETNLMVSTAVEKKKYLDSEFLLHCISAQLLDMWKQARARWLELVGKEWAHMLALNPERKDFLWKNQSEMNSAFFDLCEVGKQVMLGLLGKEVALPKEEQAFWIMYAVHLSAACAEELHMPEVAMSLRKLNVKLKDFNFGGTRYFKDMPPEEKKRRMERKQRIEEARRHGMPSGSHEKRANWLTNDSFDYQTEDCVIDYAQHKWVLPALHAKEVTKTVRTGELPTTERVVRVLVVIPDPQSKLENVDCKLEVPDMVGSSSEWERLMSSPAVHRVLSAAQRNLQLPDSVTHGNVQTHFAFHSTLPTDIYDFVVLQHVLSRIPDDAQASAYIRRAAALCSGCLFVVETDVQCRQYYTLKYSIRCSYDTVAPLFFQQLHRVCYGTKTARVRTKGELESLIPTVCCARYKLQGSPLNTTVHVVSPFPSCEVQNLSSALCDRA

B1: nanobody-6 (Nb6) (VHH)
VHH: QVQLVESGGGLVQAGGSLRLSCAASGSFFSINDMGWYRQAPGKQRELVAVISSGGSTNYADSVEGRSTISSDNAKNTVYLQLSSLKPEDTAVYYCNANVRLREYRTTSYHYWGQGTQVTVSS
Usually Kd stands for the equilibrium constant for the complex coming apart. Low readings indicate a tighter complex, high ones a looser complex. Take B1: the Kd is 30 nM.
